The text below walks through data of publication PMC13045352, “Mapping Epidermal Growth Factor Receptor‑1 Sorting Domains in Endosomes with a Calibrated Three-Dimensional Expansion Microscopy Toolkit” (ACS Nano, 2026).

This series concerns the molecule itself. Briefly: negative-stain transmission electron microscopy; purified nanocages on glow-discharged carbon film-coated grids, stained with uranyl formate; particle widths measured (mean 28.3 nm).

B1: I3-01_60eGFP monomer of the self-assembling 60-subunit nanocage (one N-terminal eGFP per subunit) (other)
chain: GSGGSGGSGGSGGSGKIEELFKKHKIVAVLRANSVEEAKKKALAVFLGGVHLIEITFTVPDADTVIKELSFLKEMGAIIGAGTVTSVEQCRKAVESGAEFIVSPHLDEEISQFCKEKGVFYMPGVMTPTELVKAMKLGHTILKLFPGEVVGPQFVKAMKGPFPNVKFVPTGGVNLDNVCEWFKAGVLAVGVGSALVKGTPVEVAEKAKAFVEKIRGCTEGSGSGSGSGS
notes: linker between the vector's eGFP and I3-01; begins with the BamHI site GGATCC; I3-01 designed nanocage subunit (David Baker's laboratory); C-terminal linker before the stop codon; Printed molecular weight of the monomer 55.72 kDa; also called 60mer decahedral nanocage; source: HeLa cells, transfected, purified from lysate (centrifugation, 1 MDa spin concentrator); also expressed in RPE-1 cells; …
With B1, the binding result is listed as “binds”.
